Measurements: US6358897B1, “Alkyl trypsin compositions and methods of use in contact lens cleaning and disinfecting systems” (Alcon Laboratories, Inc., priority 1996, dated 2002)

Tested on: azocasein
Experiment: Stability of Et-trypsin and trypsin in a disinfecting composition (Example 2B), azocasein method
Type: physicochemical
Settings: 37° C., Example 2B composition, 50 μg/ml
Description: Azocasein Method The following solutions are used in this assay: 1) Buffer solution: 0.05 M sodium phosphate buffer containing 0.9% sodium chloride, pH 7.6. 2) Substrate solution: 2 mg/ml azocasein in the buffer solution mentioned above. The assay is initiated by mixing 1 ml of an appropriately diluted (such that the enzyme activity is in the range of standard curve) enzyme composition in phosphate buffer with 2 ml of azocasein substrate solution (2 mg/ml). After incubation at 37° C. for 20 minutes, the mixture is removed from the incubator and 1 ml of trichloroacetic acid to (14% w/v) is added to stop the enzyme reaction. The mixture is vortexed well and allowed to stand at room temperature for 20 minutes. After centrifuging at 2500 rpm (with a Beckman GS-6R Centrifuge) for 15 minutes, the supernatant is filtered with a serum sampler. 2 ml of the clear yellow filtrate is then adjusted to a neutral pH with 2 ml of 0.5 N sodium hydroxide and the absorbance of 440 nm wavelength light is measured with a spectrophotometer. The amount of azocasein hydrolyzed is calculated based on a standard curve of known concentrations of azocasein solution developed under identical conditions. An enzyme activity unit (“AZ U”) is defined as that amount of enzyme which hydrolyzes 1 μg of azocasein substrate/minute at 37° C. The following is an example of the stability of Et-trypsin or Me-trypsin in a disinfecting composition of the present invention as compared to an analogous composition containing trypsin. The enzymes were solubilized in the Example 2B composition. The compositions were stored at 37° or 50° C. for 8 days or 30 hours, respectively. At various time points, enzyme activity was assayed using the azocasein method.

Substance: ethyl trypsin [Et-Trypsin]
- % Activity Remaining (1 Hour): 100%
- % Activity Remaining (2 Hours): 100%
- % Activity Remaining (4 Hours): 95.2%
- % Activity Remaining (6 Hours): 99.3%
- % Activity Remaining (8 Hours): 97.9%
- % Activity Remaining (1 day): 89.7%
- % Activity Remaining (2 days): 82.5%
- % Activity Remaining (4 days): 76.4%
- % Activity Remaining (8 days): 65.6%
